These results are taken from PMC4058081, “p600 regulates spindle orientation in apical neural progenitors and contributes to neurogenesis in the developing neocortex” (Biology Open, 2014).

Series [1] concerns the molecule itself. Nature of the series: static light scattering; Ndel1^1–201 alone in solution; data not included.
For series [2], the target named is T1, recombinant p600^4480–5183 (human, UniProt Q5T4S7 4480-5183).
T1 construct: Elutes mostly as a monomer (~75 kDa) in SEC; also called C-terminal portion of p600; source: E. coli BL21-Rosetta, purified (glutathione sepharose, PreScission cleavage, Resource Q)
Nature of the series: SEC; analytical SEC, Superdex 200 5/150, 4°C, 10 mM HEPES pH 7.5, 0.15 M NaCl, 1 mM DTT; proteins alone or mixed at 50 µM and incubated 30 min on ice; fractions analysed by SDS-PAGE. Conditions: both partners purified.

T1 sequence (Q5T4S7 4480-5183): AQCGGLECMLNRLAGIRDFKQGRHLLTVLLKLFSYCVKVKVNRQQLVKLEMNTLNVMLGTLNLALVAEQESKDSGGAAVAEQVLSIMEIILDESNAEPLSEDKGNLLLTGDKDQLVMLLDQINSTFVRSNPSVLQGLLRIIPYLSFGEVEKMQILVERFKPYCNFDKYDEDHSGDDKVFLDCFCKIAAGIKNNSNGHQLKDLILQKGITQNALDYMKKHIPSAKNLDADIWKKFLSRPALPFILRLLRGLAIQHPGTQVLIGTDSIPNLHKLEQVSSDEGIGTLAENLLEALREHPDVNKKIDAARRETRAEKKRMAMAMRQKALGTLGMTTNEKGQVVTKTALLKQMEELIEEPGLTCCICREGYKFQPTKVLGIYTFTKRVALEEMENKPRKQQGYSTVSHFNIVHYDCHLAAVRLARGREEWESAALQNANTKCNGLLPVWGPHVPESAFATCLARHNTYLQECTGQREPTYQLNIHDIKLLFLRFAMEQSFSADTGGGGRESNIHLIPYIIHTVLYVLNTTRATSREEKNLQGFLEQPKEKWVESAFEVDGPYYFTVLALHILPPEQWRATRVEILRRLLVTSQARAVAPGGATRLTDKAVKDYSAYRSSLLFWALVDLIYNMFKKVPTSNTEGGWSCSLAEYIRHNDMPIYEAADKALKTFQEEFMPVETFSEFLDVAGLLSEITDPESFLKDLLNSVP

B1: Ndel1^1–201 (coiled-coil region of Ndel1) (domain or fragment, UniProt Q9GZM8 1-201, looked up)
chain: MDGEDIPDFSSLKEETAYWKELSLKYKQSFQEARDELVEFQEGSRELEAELEAQLVQAEQRNRDLQADNQRLKYEVEALKEKLEHQYAQSYKQVSVLEDDLSQTRAIKEQLHKYVRELEQANDDLERAKRATIVSLEDFEQRLNQAIERNAFLESELDEKESLLVSVQRLKDEARDLRQELAVRERQQEVTRKSAPSSPTL
notes: Dimeric in solution by static light scattering (data not included); also called N-terminal coiled-coil domain of Ndel1; source: E. coli BL21-Rosetta, purified (Ni-NTA, ion exchange)
What is called stoichiometry N is a count of units in the complex or per binding partner. Usually Kd stands for the constant that tells how readily two partners part at equilibrium. Turning to B1, in series [1], the “stoichiometry N” value was 2. Moreover, the Kd in series [2] was 30 to 50 µM.
